One molecule from publication PMC11197762 (Fundamental Research, 2022) can be followed below.

The test has as its target GST-p53, full-length, wild-type (human, UniProt P04637 1-393). Briefly: pull-down.

Chain of GST-p53, full-length, wild-type (P04637 whole entry): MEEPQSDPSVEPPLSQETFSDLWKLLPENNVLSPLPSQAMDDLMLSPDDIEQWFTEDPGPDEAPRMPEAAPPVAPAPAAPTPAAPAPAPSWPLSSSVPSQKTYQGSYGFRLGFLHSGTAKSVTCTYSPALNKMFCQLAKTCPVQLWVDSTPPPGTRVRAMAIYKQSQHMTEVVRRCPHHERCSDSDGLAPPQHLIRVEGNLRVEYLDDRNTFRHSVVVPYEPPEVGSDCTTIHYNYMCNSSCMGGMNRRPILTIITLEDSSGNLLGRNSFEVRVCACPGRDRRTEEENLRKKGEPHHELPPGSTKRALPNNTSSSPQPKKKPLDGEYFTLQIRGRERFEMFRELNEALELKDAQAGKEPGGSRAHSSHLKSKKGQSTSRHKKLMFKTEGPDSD

B1: BRD4 basic residue-enriched interaction domain (BID, aa 524-579), purified (domain or fragment)
chain: QLAALSQPQQNKPKKKEKDKKEKKKEKHKRKEEVEENKKSKAKEPPPKKTKKNNSS
For the molecule B1, the binding result is reported as “binds”.
